Data on four molecules can be found in US8206955B2, “Production of monatin and monatin precursors” (Cargill, Incorporated, priority 2003, dated 2012).

What all share (type): biochemical
A short description of data set [1]: tryptophan aminotransferase activity, production of indole-pyruvic acid. Particulars: for Specific Activity: 5 mM L-tryptophan, 30 minutes at 30° C.; for tryptophan aminotransferase activity (in words): recombinant clones expressed in E. coli. The procedure:
(§1) Cell extracts were analyzed by SDS-PAGE, and assayed for tryptophan aminotransferase activity by following production of indole-pyruvic acid using the following protocol. One mL reactions were carried out in 50 mM sodium tetraborate (pH 8.5), 0.5 mM EDTA, 0.5 mM sodium arsenate, 50 μM pyridoxal phosphate, 5 mM α-ketoglutarate, and 5 mM L-tryptophan. The reactions were initiated by the addition of cell free extracts or purified enzyme and were incubated 30 minutes at 30° C. 20% TCA (200 μL) was added to stop the reaction, and the precipitated protein was removed by centrifugation. The absorbance at 327 nm was measured and compared to a standard curve of freshly prepared indole-3-pyruvate in the assay buffer. Control reactions without the substrate tryptophan or using cell-free extracts from clones transformed with pET30a alone were also performed.
Due to background from the native E. coli aminotransferases in cell extracts, the recombinant fusion proteins each containing an aminotransferase protein fused to the pET30 amino terminal HIS6-Tag/S-Tag (6×HIS tag disclosed as SEQ ID NO: 90) were purified using immobilized metal affinity chromatography with His-Bind cartridges following manufacturer's protocols (Novagen, Madison, Wis.). The HIS6-Tag sequence (SEQ ID NO: 90) of the fusion proteins binds to the divalent Ni^2+ cations immobilized on IDA-based His-Bind resin. The eluent fractions were desalted on PD-10 (Amersham Biosciences, Piscataway, N.J.) columns and eluted in 50 mM Tris, pH 7.0. Purified proteins were analyzed by SDS-PAGE and assayed for aminotransferase activity.
(§2) Table 1 lists the specific activities measured in micrograms of indole-3-pyruvate (I3P) formed per milligram protein per minute. […] In these cases a ‘>’ precedes the specific activity number.

The nature of data set [2]: monatin aminotransferase assay (loss of monatin by LC/MS). The procedure:
Transamination activity. Monatin aminotransferase assays were conducted with the aspartate aminotransferase (AspC) from E. coli, the tyrosine aminotransferase (TyrB) from E. coli, the broad substrate aminotransferase (BSAT) from L. major, and the two commercially available porcine glutamate-oxaloacetate aminotransferases described in Example 1. Both oxaloacetate and alpha-ketoglutarate were tested as the amino acceptor. The assay mixture contained (in 0.5 mL) 50 mM Tris-HCl, pH 8.0, 0.05 mM PLP, 5 mM amino acceptor, 5 mM monatin, and 25 μg of aminotransferase. The assays were incubated at 30° C. for 30 minutes, and the reactions were stopped by addition of 0.5 mL isopropyl alcohol. The loss of monatin was monitored by LC/MS (Example 6). […] The relative activity with oxaloacetate was: BSAT>AspC>porcine type IIa>porcine type I=TyrB. The relative activity with alpha-ketoglutarate was: BSAT>AspC>porcine type I>porcine type IIa>TyrB.

Data set [3] is described as follows: aminotransferase activity using D-tryptophan as substrate. Particulars: purified (P). The procedure: as §1, with “One mL reactions were carried out in 50 mM sodium tetraborate (pH 8.5), 0.5 mM EDTA, 0.5 mM sodium arsenate, 50 μM pyridoxal phosphate, 5 mM α-ketoglutarate, and 5 mM L-tryptophan.” left out
as §2

The nature of data set [4]: in vitro monatin production with aldolase and aminotransferase. Particulars: 30 μg/mL KHG enzyme, 50 mM Tris pH 8.3, saturating tryptophan, one hour.

B1: L. major bsat: Leishmania major broad substrate aminotransferase (bsat, SEQ ID NOS: 7 and 8) (protein)
chain: MSMQAAMTTAERWQKIQAQAPDVIFDLAKRAAAAKGPKANLVIGAYRDEQGRPYPLRVVRKAEQLLLDMNLDYEYLPISGYQPFIDEAVKIIYGNTVELENLVAVQTLSGTGAVSLGAKLLTRVFDAETTPIYLSDPTWPNHYGVVKAAGWKNICTYAYYDPKTVSLNFEGMKKDILAAPDGSVFILHQCAHNPTGVDPSQEQWNEIASLMLAKHHQVFFDSAYQGYASGSLDTDAYAARLFARRGIEVLLAQSFSKNMGLYSERAGTLSLLLKDKTKRADVKSVMDSLIREEYTCPPAHGARLAHLILSNNELRKEWEAELSAMAERIRTMRRTVYDELLRLQTPGSWEHVINQIGMFSFLGLSKAQCEYCQNHNIFITVSGRANMAGLTHETALMLAQTINDAVRNVNRE
modifications: Leishmania major
For B1, the “Specific Activity” value is reported as over 49.3 μg I3P/mg protein/min in data set [1] (cell extracts (CE)) and over 4280 μg I3P/mg protein/min in data set [1] (purified (P)). Besides, the “tryptophan aminotransferase activity (in words)” value in data set [1] is listed as “significant levels of tryptophan aminotransferase activity”. Moreover, in data set [2] (oxaloacetate as the amino acceptor, 5 mM monatin, 25 μg aminotransferase, 30° C. 30 minutes), the “monatin transamination activity (in words)” value is recorded as “highest amount of activity”.

B2: B. subtilis D-aminotransf.: Bacillus subtilis D-alanine aminotransferase (dat) (protein, UniProt O07597 1-282, looked up)
D-alanine aminotransferase: MKVLVNGRLIGRSEASIDLEDRGYQFGDGIYEVIRVYKGVLFGLREHAERFFRSAAEIGISLPFSIEDLEWDLQKLVQENAVSEGAVYIQTTRGVAPRKHQYEAGLEPQTTAYTFTVKKPEQEQAYGVAAITDEDLRWLRCDIKSLNLLYNVMTKQRAYEAGAFEAILLRDGVVTEGTSSNVYAVINGTVRTHPANRLILNGITRMNILGLIEKNGIKLDETPVSEEELKQAEEIFISSTTAEIIPVVTLDGQSIGSGKPGPVTKQLQAAFQESIQQAASIS
Regarding B2, in data set [3], the “Specific Activity” value is listed as 2.7 μg I3P/mg protein/min.

B3: E. coli KHG: 4-hydroxy-2-oxoglutarate glyoxylate lyase (KHG aldolase) from E. coli (protein, UniProt P0A955 1-213, looked up)
KHG/KDPG aldolase: MKNWKTSAESILTTGPVVPVIVVKKLEHAVPMAKALVAGGVRVLEVTLRTECAVDAIRAIAKEVPEAIVGAGTVLNPQQLAEVTEAGAQFAISPGLTEPLLKAATEGTIPLIPGISTVSELMLGMDYGLKEFKFFPAEANGGVKALQAIAGPFSQVRFCPTGGISPANYRDYLALKSVLCIGGSWLVPADALEAGDYDRITKLAREAVEGAKL
In data set [4], B3 had a monatin produced of 3000 ng/mL.

B4: S. meliloti tatA: Sinorhizobium meliloti tyrosine aminotransferase (tatA, SEQ ID NOS: 1 and 2) (protein, listed as Sinorhizobium meliloti)
chain: MFDALARQADDPLLFLIGLFRKDERPGKVDLGVGVYRDETGRTPIFRAVKAAEKRLLETQDSKAYIGPEGDLVFLDRLWELVGGDTIERSHVAGVQTPGGSGALRLAADLIARMGGRGIWLGLPSWPNHAPIFKAAGLDIATYDFFDIPSQSVIFDNLVSALEGAASGDAVLLHASCHNPTGGVLSEAQWMEIAALVAERGLLPLVDLAYQGFGRGLDQDVAGLRHLLGVVPEALVAVSCSKSFGLYRERAGAIFARTSSTASADRVRSNLAGLARTSYSMPPDHGAAVVRTILDDPELRRDWTEELETMRLRMTGLRRSLAEGLRTRWQSLGAVADQEGMFSMLPLSEAEVMRLRTEHGIYMPASGRINIAGLKTAEAAEIAGKFTSL
Regarding B4, the “Specific Activity” value in data set [1] (cell extracts (CE)) was over 28.6 μg I3P/mg protein/min; in data set [1] (purified (P)), over 931 μg I3P/mg protein/min. For the same molecule, the “tryptophan aminotransferase activity (in words)” value in data set [1] was “significant levels of tryptophan aminotransferase activity”. The “conversion of monatin to MP (in words)” value in data set [2] (similar assays, conditions tested) is “did not appear to detectably convert monatin to MP”.
